Experimental data: US20260284139 (published 2026)
Read-outs that look alike come from different tables or passages of the source. Where no end group is shown, it is not given here. [ ]: non-standard residue; d: D form. The star is where a group is joined. Octanoyl = CCCCCCCC(=O)*

B1: BCL9 (protein)
chain: MHSSNPKVRSSPSGNTQSSPKSKQEVMVRPPTVMSPSGNPQLDSKFSNQGKQGGSASQSQPSPCDSKSGGHTPKALPGPGGSMGLKNGAGNGAKGKGKRERSISADSFDQRDPGTPNDDSDIKECNSADHIKSQDSQHTPHSMTPSNATAPRSSTPSHGQTTATEPTPAQKTPAKVVYVFSTEMANKAAEAVLKGQVETIVSFHIQNISNNKTERSTAPLNTQISALRNDPKPLPQQPPAPANQDQNSSQNTRLQPTPPIPAPAPKPAAPPRPLDRESPGVENKLIPSVGSPASSTPLPPDGTGPNSTPNNRAVTPVSQGSNSSSADPKAPPPPPVSSGEPPTLGENPDGLSQEQLEHRERSLQTLRDIQRMLFPDEKEFTGAQSGGPQQNPGVLDGPQKKPEGPIQAMMAQSQSLGKGPGPRTDVGAPFGPQGHRDVPFSPDEMVPPSMNSQSGTIGPDHLDHMTPEQIAWLKLQQEFYEEKRRKQEQVVVQQCSLQDMMVHQHGPRGVVRGPPPPYQMTPSEGWAPGGTEPFSDGINMPHSLPPRGMAPHPNMPGSQMRLPGFAGMINSEMEGPNVPNPASRPGLSGVSWPDDVPKIPDGRNFPPGQGIFSGPGRGERFPNPQGLSEEMFQQQLAEKQLGLPPGMAMEGIRPSMEMNRMIPGSQRHMEPGNNPIFPRIPVEGPLSPSRGDFPKGIPPQMGPGRELEFGMVPSGMKGDVNLNVNMGSNSQMIPQKMREAGAGPEEMLKLRPGGSDMLPAQQKMVPLPFGEHPQQEYGMGPRPFLPMSQGPGSNSGLRNLREPIGPDQRTNSRLSHMPPLPLNPSSNPTSLNTAPPVQRGLGRKPLDISVAGSQVHSPGINPLKSPTMHQVQSPMLGSPSGNLKSPQTPSQLAGMLAGPAAAASIKSPPVLGSAAASPVHLKSPSLPAPSPGWTSSPKPPLQSPGIPPNHKAPLTMASPAMLGNVESGGPPPPTASQPASVNIPGSLPSSTPYTMPPEPTLSQNPLSIMMSRMSKFAMPSSTPLYHDAIKTVASSDDDSPPARSPNLPSMNNMPGMGINTQNPRISGPNPVVPMPTLSPMGMTQPLSHSNQMPSPNAVGPNIPPHGVPMGPGLMSHNPIMGHGSQEPPMVPQGRMGFPQGFPPVQSPPQQVPFPHNGPSGGQGSFPGGMGFPGEGPLGRPSNLPQSSADAALCKPGGPGGPDSFTVLGNSMPSVFTDPDLQEVIRPGATGIPEFDLSRIIPSEKPSQTLQYFPRGEVPGRKQPQGPGPGFSHMQGMMGEQAPRMGLALPGMGGPGPVGTPDIPLGTAPSMPGHNPMRPPAFLQQGMMGPHHRMMSPAQSTMPGQPTLMSNPAAAVGMIPGKDRGPAGLYTHPGPVGSPGMMMSMQGMMGPQQNIMIPPQMRPRGMAADVGMGGFSQGPGNPGNMMF

Legend:
[1] = biological target: T1, β-catenin (full-length recombinant) (human, UniProt P35222); assay: competition, ALPHA assay vs BCL9 HD2 peptide, pH 6.5
T1 chain: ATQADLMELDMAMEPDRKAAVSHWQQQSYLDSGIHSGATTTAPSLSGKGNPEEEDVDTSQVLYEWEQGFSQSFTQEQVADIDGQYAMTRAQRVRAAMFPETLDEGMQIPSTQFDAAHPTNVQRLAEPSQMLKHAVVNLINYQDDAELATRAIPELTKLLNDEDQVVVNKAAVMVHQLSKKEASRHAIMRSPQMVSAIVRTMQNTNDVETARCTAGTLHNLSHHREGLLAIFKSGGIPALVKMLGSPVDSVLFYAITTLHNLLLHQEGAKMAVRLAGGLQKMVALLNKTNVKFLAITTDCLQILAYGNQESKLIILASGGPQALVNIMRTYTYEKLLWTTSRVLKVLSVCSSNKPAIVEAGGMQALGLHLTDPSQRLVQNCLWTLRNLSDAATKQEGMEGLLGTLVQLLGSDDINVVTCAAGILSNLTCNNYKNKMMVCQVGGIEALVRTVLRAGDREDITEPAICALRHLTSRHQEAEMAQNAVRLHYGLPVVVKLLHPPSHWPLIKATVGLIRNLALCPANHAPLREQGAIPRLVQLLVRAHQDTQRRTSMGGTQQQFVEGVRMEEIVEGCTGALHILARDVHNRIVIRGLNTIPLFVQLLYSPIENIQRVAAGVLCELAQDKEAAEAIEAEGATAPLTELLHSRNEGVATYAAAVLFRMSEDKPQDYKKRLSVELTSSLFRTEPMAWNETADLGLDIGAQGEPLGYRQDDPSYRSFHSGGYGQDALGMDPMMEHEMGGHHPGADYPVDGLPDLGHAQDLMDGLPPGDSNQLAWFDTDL

[2] = biological target: T1, β-catenin (full-length recombinant); assay: FP, room temperature
[3] = biological target: T1, β-catenin (full-length recombinant)

Binder	IC50 [1] [nM]	Kd [2] [nM]	Kd [3] [nM]
Octanoyl-[dF][dR][dW][dL][dL][dR][dQ][dL][dA][dR][dL][dA][dQ][dL][dA][dK][dL][dT][dP][dV][dK][dL][dT][dP][dV] (also: FITC conjugate used in the FP assay) [ST316]	~1000	~126	–
B1	–	–	~200
